We go through eleven molecules from patent US20230002757A1 (ZHEJIANG NANOMAB TECHNOLOGY CENTER, published 2023).

Assay [1] deals with T1, PD-1 protein (human, UniProt Q15116 25-167, limits assumed).
T1 construct: also called human PD-1
Description: blocking ELISA, PD-1 coated, competitor biotin PD-L1. As to the method: Each well of 96-well microtiter plates is coated with 2 μg/ml of PD-1 protein in PBS and blocked with 1% BSA. […]
The intensity of the developed color is measured at 450 nm. Wells with no added PD-1 and no added VHH-FC are negative and positive controls, respectively.
For orientation: An ELISA detects its analyte on a solid surface through an enzyme-linked reagent.

The target of assay [2] is T1, PD-1 protein. Kind of assay: ELISA, PD-1 coated. As to the method:
2 μg/ml of PD-1 protein is coated on 96-well plates overnight for ELISA binding assay. Recombinant VHH-FC proteins are added to the wells and allowed to stand for a period of time, then 1 μg/ml of HRP-conjugated anti-FC antibody is added as detection antibody and the assay reagents are added. The absorbance is read at 450 nm. Binding of nivolumab serves as a positive control and plates coated with BSA are used as the negative control group.

T1 sequence (Q15116 25-167 limits assumed): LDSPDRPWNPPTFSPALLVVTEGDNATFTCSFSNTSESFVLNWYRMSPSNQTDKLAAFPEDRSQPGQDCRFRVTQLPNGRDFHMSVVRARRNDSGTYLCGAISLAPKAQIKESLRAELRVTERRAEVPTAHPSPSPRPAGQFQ

B1: 504#SS23 (Fc fusion, not shown: a dimerising Fc or GST; small tags and cut ends)
VHH: QVQLVESGGGLVQPGGSLRLSCAASGFTFSSYVMSWVRQAPGKGLEWVSAINSGGSSSSYPESVKDRFTVSRDNAKNTLYLQMNSLKPEDTAVYFCAAKNVPGFYYSDYANHEYDYWGQGTQVTVSS
notes: VHH-FC construct from HEK293 cells
As to B1, in the assay with PD-1 protein [1], the “OD450 of PD-L1 bound, antibody at 0.15 µg/mL” value was 3.47 OD450; the “OD450 of PD-L1 bound, antibody at 0.61 µg/mL” value came to 3.31 OD450; the “OD450 of PD-L1 bound, antibody at 2.42 µg/mL” value came to 3.29 OD450; the “OD450 of PD-L1 bound, antibody at 9.75 µg/mL” value is 3.28 OD450. In the assay with PD-1 protein [2], the “OD450 at 0.002 µg/mL” value worked out at 0.19 OD450, the “OD450 at 0.02 µg/mL” value came to 1.22 OD450, the “OD450 at 0.2 µg/mL” value was 2.91 OD450 and the “OD450 at 2 µg/mL” value was found to be 3 OD450.

B2: 504#SS22 (Fc fusion, not shown: a dimerising Fc or GST; small tags and cut ends)
VHH: QVQLVETGGGLVQAGGSLRLSCAASGRTFSSYAMGWFRQAPGKERDFVAGISGSGGNTPYAESVKGRFTISRDNAKNTVALQMNSLKPEDTAVYYCAAKFTSSSFYYRSPREYSSWGQGTQVTVSS
notes: as for B1
With B2, in the assay with PD-1 protein [1], the “OD450 of PD-L1 bound, antibody at 0.15 µg/mL” value amounted to 3.47 OD450; the “OD450 of PD-L1 bound, antibody at 0.61 µg/mL” value came to 3.34 OD450; the “OD450 of PD-L1 bound, antibody at 2.42 µg/mL” value is 3.32 OD450; the “OD450 of PD-L1 bound, antibody at 9.75 µg/mL” value amounted to 3.28 OD450. Also, in the assay with PD-1 protein [2], the “OD450 at 0.002 µg/mL” value was 0.04 OD450, the “OD450 at 0.02 µg/mL” value is 0.03 OD450, the “OD450 at 0.2 µg/mL” value was determined as 0.03 OD450 and the “OD450 at 2 µg/mL” value came out at 0.04 OD450.

B3: 504#SS29 (Fc fusion, not shown: a dimerising Fc or GST; small tags and cut ends)
VHH: QVQLVESGGGLVQAGGSLRLSCAASGRTFSGYTMGWFRRAPGKERELIANILWNSARRYYADSVKGRFTISRDNAMNTVDLQMNSLKPEDTAVYYCAVLVDSTYRFSNQGTQVTVSS
notes: as for B1
B3: in the assay with PD-1 protein [1], the “OD450 of PD-L1 bound, antibody at 0.15 µg/mL” value was 3.35 OD450; the “OD450 of PD-L1 bound, antibody at 0.61 µg/mL” value stood at 3.36 OD450; the “OD450 of PD-L1 bound, antibody at 2.42 µg/mL” value was found to be 3.39 OD450; the “OD450 of PD-L1 bound, antibody at 9.75 µg/mL” value was 3.31 OD450. In the assay with PD-1 protein [2], the “OD450 at 0.002 µg/mL” value was found to be 0.04 OD450, the “OD450 at 0.02 µg/mL” value is 0.04 OD450, the “OD450 at 0.2 µg/mL” value was found to be 0.06 OD450 and the “OD450 at 2 µg/mL” value turned out to be 0.35 OD450.

B4: 504#SS28 (Fc fusion, not shown: a dimerising Fc or GST; small tags and cut ends)
VHH: QVQLVESGGGSVQPGGSLRLSCAVSGFTLDYYDIGWFRQAPGKERDWISCISSSDGSQYYADSVKDRFFISRDNAKNTVYLQMNSLEPGDTAVYYCAADFDTYRFCSGFGPDAYSSWGQGTQVIVSS
notes: as for B1
For the molecule B4, in the assay with PD-1 protein [1], the “OD450 of PD-L1 bound, antibody at 0.15 µg/mL” value amounted to 3.32 OD450; the “OD450 of PD-L1 bound, antibody at 0.61 µg/mL” value was determined as 3.28 OD450; the “OD450 of PD-L1 bound, antibody at 2.42 µg/mL” value was found to be 3.31 OD450; the “OD450 of PD-L1 bound, antibody at 9.75 µg/mL” value is 3.27 OD450. Further, in the assay with PD-1 protein [2], the “OD450 at 0.002 µg/mL” value amounted to 0.14 OD450, the “OD450 at 0.02 µg/mL” value was found to be 0.93 OD450, the “OD450 at 0.2 µg/mL” value worked out at 2.77 OD450 and the “OD450 at 2 µg/mL” value worked out at 3.06 OD450.

B5: 504#SS30 (Fc fusion, not shown: a dimerising Fc or GST; small tags and cut ends)
VHH: EVQLVETGGGLVQAGGSLRLACEVSGRTFSSYAMGWFRQAPGREREFVASIRVSGGITDYADSVKGRFTISRDNAKDTVYLQMINLKPEDTAVYYCNADISRYRFSRGDYWGKGTLVTVSS
notes: as for B1
With B5, in the assay with PD-1 protein [1], the “OD450 of PD-L1 bound, antibody at 0.15 µg/mL” value stood at 3.33 OD450; the “OD450 of PD-L1 bound, antibody at 0.61 µg/mL” value amounted to 3.26 OD450; the “OD450 of PD-L1 bound, antibody at 2.42 µg/mL” value is 3.29 OD450; the “OD450 of PD-L1 bound, antibody at 9.75 µg/mL” value stood at 3.28 OD450. In the assay with PD-1 protein [2], the “OD450 at 0.002 µg/mL” value amounted to 0.04 OD450, the “OD450 at 0.02 µg/mL” value turned out to be 0.03 OD450, the “OD450 at 0.2 µg/mL” value came out at 0.03 OD450 and the “OD450 at 2 µg/mL” value is 0.04 OD450.

B6: 504#SS16 (Fc fusion, not shown: a dimerising Fc or GST; small tags and cut ends)
VHH: EVQVVESGGGLVQAGGSLRLSCAVSGRTFSSYVMGWFRQAPGKERDFVAAISRSGGRTWYADSVKGRFTISFDNAKNTVYLQMNSLKPEDTASYYCNTDYTFAKLTAPDRRNDDWGQGTQVTVSS
notes: as for B1
As to B6, in the assay with PD-1 protein [1], the “OD450 of PD-L1 bound, antibody at 0.15 µg/mL” value is 3.48 OD450; the “OD450 of PD-L1 bound, antibody at 0.61 µg/mL” value worked out at 3.35 OD450; the “OD450 of PD-L1 bound, antibody at 2.42 µg/mL” value worked out at 3.22 OD450; the “OD450 of PD-L1 bound, antibody at 9.75 µg/mL” value was found to be 3.26 OD450. Besides, in the assay with PD-1 protein [2], the “OD450 at 0.002 µg/mL” value was 0.03 OD450, the “OD450 at 0.02 µg/mL” value was 0.04 OD450, the “OD450 at 0.2 µg/mL” value worked out at 0.03 OD450 and the “OD450 at 2 µg/mL” value is 0.05 OD450.

B7: 504#SS2 (Fc fusion)
VHH: EVQVVESGGGLVKTGDSLRLSCAASGGTISGYEMGWFRQAPGKEREFVAGISRNGRSTGYSDSAKDRFTISRDNAKNTVYLQMNSLKPEDTAVYYCAAGLKADYGDSYVDTSTRNYNYWGQGTQVTVSS
notes: VHH-FC construct from HEK293 cells; not shown: The (G4S)3 linker leading to it is left out with it
For the molecule B7, in the assay with PD-1 protein [1], the “OD450 of PD-L1 bound, antibody at 0.15 µg/mL” value came out at 3.34 OD450; the “OD450 of PD-L1 bound, antibody at 0.61 µg/mL” value amounted to 3.23 OD450; the “OD450 of PD-L1 bound, antibody at 2.42 µg/mL” value amounted to 3.31 OD450; the “OD450 of PD-L1 bound, antibody at 9.75 µg/mL” value was 3.31 OD450. For the same molecule, in the assay with PD-1 protein [2], the “OD450 at 0.002 µg/mL” value was determined as 0.59 OD450, the “OD450 at 0.02 µg/mL” value amounted to 2.25 OD450, the “OD450 at 0.2 µg/mL” value was 3.12 OD450 and the “OD450 at 2 µg/mL” value stood at 3.1 OD450.

B8: 504#SS1 (Fc fusion)
VHH: QVQLVESGGGLVQAGGSLRLSCAASGLTFSDFAMGWFRQAPGKEREFVAAISWSGGQTYNVESAKGRFTISRDNAKNTVYLQMNKLKPDDTAVYYCAASTMVVTTVAADYKYWGQGTQVTVSS
notes: as for B7
In the case of B8, in the assay with PD-1 protein [1], the “OD450 of PD-L1 bound, antibody at 0.15 µg/mL” value was 3.19 OD450; the “OD450 of PD-L1 bound, antibody at 0.61 µg/mL” value is 3.15 OD450; the “OD450 of PD-L1 bound, antibody at 2.42 µg/mL” value turned out to be 3.26 OD450; the “OD450 of PD-L1 bound, antibody at 9.75 µg/mL” value stood at 3.17 OD450. Further, in the assay with PD-1 protein [2], the “OD450 at 0.002 µg/mL” value amounted to 0.03 OD450, the “OD450 at 0.02 µg/mL” value is 0.03 OD450, the “OD450 at 0.2 µg/mL” value was found to be 0.03 OD450 and the “OD450 at 2 µg/mL” value is 0.04 OD450.

B9: 504#SS25 (Fc fusion, not shown: a dimerising Fc or GST; small tags and cut ends)
VHH: QVQLVETGGGLVQAGGSLRLSCAASGDTIFISSMAWYRQAPGKERELVASIDSDDIIYYAATVKGRFTISRDNDKPTMYLQMDTLQPEDTAVYYCRVESQDYYFDYDRDSWGQGTQVTVSS
notes: as for B1
As for B9, in the assay with PD-1 protein [1], the “OD450 of PD-L1 bound, antibody at 0.15 µg/mL” value came to 3.32 OD450; the “OD450 of PD-L1 bound, antibody at 0.61 µg/mL” value is 3.3 OD450; the “OD450 of PD-L1 bound, antibody at 2.42 µg/mL” value came out at 3.36 OD450; the “OD450 of PD-L1 bound, antibody at 9.75 µg/mL” value was found to be 3.17 OD450. Besides, in the assay with PD-1 protein [2], the “OD450 at 0.002 µg/mL” value came out at 0.03 OD450, the “OD450 at 0.02 µg/mL” value was determined as 0.03 OD450, the “OD450 at 0.2 µg/mL” value turned out to be 0.03 OD450 and the “OD450 at 2 µg/mL” value was 0.04 OD450.

B10: 504#SS14 (Fc fusion, not shown: a dimerising Fc or GST; small tags and cut ends)
VHH: QVQLVESGGGLVQPGGSLRLSCVASGFTFSSYWMYWVRQAPGKGLEWVSAIDTTGGSTAYTHSVKGRFTISRDNARNTLYLQMNNLKSEDTAVYYCANSTYFNDDPEYDRWGQGTQVTVSS
notes: as for B1
In the case of B10, in the assay with PD-1 protein [1], the “OD450 of PD-L1 bound, antibody at 0.15 µg/mL” value was determined as 3.22 OD450; the “OD450 of PD-L1 bound, antibody at 0.61 µg/mL” value worked out at 3.25 OD450; the “OD450 of PD-L1 bound, antibody at 2.42 µg/mL” value came out at 3.27 OD450; the “OD450 of PD-L1 bound, antibody at 9.75 µg/mL” value was determined as 3.36 OD450. For the same molecule, in the assay with PD-1 protein [2], the “OD450 at 0.002 µg/mL” value was found to be 0.04 OD450, the “OD450 at 0.02 µg/mL” value came out at 0.03 OD450, the “OD450 at 0.2 µg/mL” value was 0.03 OD450 and the “OD450 at 2 µg/mL” value is 0.04 OD450.

B11: 504#SS15 (Fc fusion, not shown: a dimerising Fc or GST; small tags and cut ends)
VHH: QVQLVESGGGLVQPGGSLRLSCAASGFTFSNYAMTWYRQAPGKERELVAAISSAGYTTTYAGSVKGRFTISRDNAKNTVYLQMNSLNPEDTAVYYCNAGRLSYGGSYYPNDDYWGQGTQVTVSS
notes: as for B1
B11: in the assay with PD-1 protein [1], the “OD450 of PD-L1 bound, antibody at 0.15 µg/mL” value turned out to be 3.53 OD450; the “OD450 of PD-L1 bound, antibody at 0.61 µg/mL” value was determined as 3.69 OD450; the “OD450 of PD-L1 bound, antibody at 2.42 µg/mL” value turned out to be 3.57 OD450; the “OD450 of PD-L1 bound, antibody at 9.75 µg/mL” value turned out to be 3.68 OD450. Also, in the assay with PD-1 protein [2], the “OD450 at 0.002 µg/mL” value was determined as 0.04 OD450, the “OD450 at 0.02 µg/mL” value came to 0.04 OD450, the “OD450 at 0.2 µg/mL” value worked out at 0.04 OD450 and the “OD450 at 2 µg/mL” value was found to be 0.05 OD450.
